Patent EP1951759B1 (ELI LILLY AND COMPANY, dated 2010)

Molecular target: T1, soluble EGFR (sEGFR): amino acids 1-619 of mature human EGFR with (Gly)4Ser linker and (His)6 tag (human, UniProt P00533 25-643, biotinylated with Sulfo-NHS-LC-Biotin (B-sEGFR) in the filter lift and the capture ELISA)
T1 construct: range 25-643; also called B-sEGFR; biotinylated sEGFR
Test: KinExA; calculated as Kd x kon

- koff: 1.46e-06 s⁻¹
B1: full-length monoclonal antibody VH4.15 (antibody, V domains shown)
VH: QVQLQESGPGLVKPSETLSLTCTVSGFSLTNYGVHWIRQPPGKGLEWIGNIWSGGNTDYNTPFTSRVTISVDTSKNQFSLKLSSVTAADTAVYYCARALDYYDYDYAYWGQGTMVTVSS
VL: EIVLTQSPDFQSVTPKEKVTITCRASYSIGTNIHWYQQKPDQSPKLLIKYASESISGVPSRFSGSGSGTDFTLTINSLEAEDAATYYCQQNNEWPTSFGGGTKVEIK
notes: Full-length antibody with human Fc
